Reference: patent publication US20260184814A1, “BROADLY NE[…] INFLUENZA NEURAMINIDASE” (priority 2022, published 2026)
Values joined by “and” are separate entries in the source; they are usually repeats but may differ in a detail not shown here. Equal entries are not always repeated. Where two headings read alike, the source gives them in different places.

Experiments:
N1 [1] = experiment: Bio-Layer Interferometry (BLI)
N2 [2] = experiment: Bio-Layer Interferometry (BLI)
N9 [3] = experiment: Bio-Layer Interferometry (BLI)
N1 [4] = experiment: Bio-Layer Interferometry (BLI); printed as kdis
N2 [5] = experiment: Bio-Layer Interferometry (BLI); printed as kdis
N9 [6] = experiment: Bio-Layer Interferometry (BLI); printed as kdis
[7] = biological target: B/MALAYSIA/3120318925/2013 (YAMAGATA) (Influenza B virus); experiment: flow cytometry, NA transiently expressed on Expi-CHO cells
[8] = biological target: B/WISCONSIN/1/2010 (YAMAGATA) (Influenza B virus); experiment: as above
[9] = biological target: IBV neuraminidase from B/Lee/10/1940 (Ancestral) (Influenza B virus B/Lee/10/1940) (UniProt P03474); experiment: as above
[10] = biological target: IBV neuraminidase from B/Malaysia/2506/2004 (Victoria) (Influenza B virus B/Malaysia/2506/2004); experiment: as above
[11] = biological target: IBV neuraminidase from B/Yamanashi/166/1998 (Yamagata) (Influenza B virus B/Yamanashi/166/1998); experiment: as above
[12] = biological target: N1 neuraminidase from A/Stockholm/18/2007 (Influenza A virus A/Stockholm/18/2007); experiment: as above
[13] = biological target: N2 A/HONG KONG/68 (Influenza A virus); experiment: as above
[14] = biological target: N2 neuraminidase from A/Leningrad/134/17/57 (Influenza A virus A/Leningrad/134/17/57) (UniProt Q67214); experiment: as above
[15] = biological target: N2 neuraminidase from A/Washington/01/2007 (Influenza A virus A/Washington/01/2007); experiment: as above
[16] = biological target: N3 neuraminidase from A/Canada/rv504/2004 (Influenza A virus A/Canada/rv504/2004); experiment: as above
[17] = biological target: N4 A/MALLARD DUCK/…/30/2011 (Influenza A virus); experiment: as above
[18] = biological target: N5 A/AQUATIC BIRD/KOREA/CN5/2009 (Influenza A virus); experiment: as above
[19] = biological target: N6 neuraminidase from A/swine/Ontario/01911/1/99 (Influenza A virus A/swine/Ontario/01911/1/99); experiment: as above
[20] = biological target: N7 neuraminidase from A/Netherlands/078/03 (Influenza A virus A/Netherlands/078/03); experiment: as above
[21] = biological target: N8 A/HARBOR SEAL/NEW …/179629/2011 (Influenza A virus); experiment: as above
[22] = biological target: N9 neuraminidase from A/Anhui/1/2013 (Influenza A virus A/Anhui/1/2013 (H7N9)); experiment: as above
[23] = biological target: N1 neuraminidase from A/Swine/Jiangsu/J004/2018 (Influenza A virus A/Swine/Jiangsu/J004/2018 (H1N1))
[24] = biological target: N1 neuraminidase from A/Swine/Jiangsu/J004/2018 (Influenza A virus A/Swine/Jiangsu/J004/2018 (H1N1)); remark: listed apart in the source
[25] = biological target: N2 neuraminidase from A/South Australia/34/2019 (Influenza A virus A/South Australia/34/2019)
[26] = biological target: N2 neuraminidase from A/South Australia/34/2019 (Influenza A virus A/South Australia/34/2019); remark: listed apart in the source
[27] = biological target: N1 neuraminidase from A/Swine/Jiangsu/J004/2018 (Influenza A virus A/Swine/Jiangsu/J004/2018 (H1N1)); remark: listed apart in the source
N9 NA (FIGS. 96A-96C) = experiment: Bio-Layer Interferometry (BLI)
[28] = biological target: B/BRISBANE/60/2008 (VICTORIA) (Influenza B virus); experiment: flow cytometry, NA transiently expressed on Expi-CHO cells
NA-9 = experiment: BLI, antibody loaded on the sensor (Loading Sample ID: FNI9), NA-9 as sample
[29] = biological target: N1 neuraminidase from A/Swine/Jiangsu/J004/2018 (Influenza A virus A/Swine/Jiangsu/J004/2018 (H1N1)); experiment: flow cytometry, cells infected with A/Swine/Jiangsu/J004/2018, antibody 2 µg/ml
[30] = biological target: N1 neuraminidase from A/Swine/Jiangsu/J004/2018 (Influenza A virus A/Swine/Jiangsu/J004/2018 (H1N1)); experiment: flow cytometry, cells infected with A/Swine/Jiangsu/J004/2018, antibody 10 µg/ml
[31] = biological target: N1 neuraminidase from A/Swine/Jiangsu/J004/2018 (Influenza A virus A/Swine/Jiangsu/J004/2018 (H1N1)); experiment: flow cytometry, cells infected with A/Swine/Jiangsu/J004/2018, antibody 50 µg/ml
[32] = biological target: human FcγRIIIa (F158 allele) (human) (UniProt P08637)
[33] = biological target: human FcγRIIIa (V158 allele) (human) (UniProt P08637)
[34] = biological target: human FcγRIIa (H131 allele) (human) (UniProt P12318)
human FcγRIIb (human) [35] = biological target: human FcγRIIb (human) (UniProt P31994)
human C1q (human) [36] = biological target: human C1q (human) (UniProt P02745); experiment: MSD
human FcRn (human) [37] = biological target: human FcRn (human) (UniProt P55899); experiment: MSD
[38] = biological target: human FcγRIIIa (F158 allele) (human) (UniProt P08637); experiment: MSD
[39] = biological target: human FcγRIIIa (V158 allele) (human) (UniProt P08637); experiment: MSD
human FcγRIIIb (human) [40] = biological target: human FcγRIIIb (human) (UniProt O75015); experiment: MSD
[41] = biological target: human FcγRIIa (H131 allele) (human) (UniProt P12318); experiment: MSD
[42] = biological target: human FcγRIIa (R131 allele) (human) (UniProt P12318); experiment: MSD
human FcγRIIb (human) [43] = biological target: human FcγRIIb (human) (UniProt P31994); experiment: MSD
human C1q (human) [44] = biological target: human C1q (human) (UniProt P02745); experiment: MSD [cont'd]
human FcRn (human) [45] = biological target: human FcRn (human) (UniProt P55899); experiment: MSD [cont'd]
[46] = biological target: human FcγRIIIa (F158 allele) (human) (UniProt P08637); experiment: MSD [cont'd]
[47] = biological target: human FcγRIIIa (V158 allele) (human) (UniProt P08637); experiment: MSD [cont'd]
human FcγRIIIb (human) [48] = biological target: human FcγRIIIb (human) (UniProt O75015); experiment: MSD [cont'd]
[49] = biological target: human FcγRIIa (H131 allele) (human) (UniProt P12318); experiment: MSD [cont'd]
[50] = biological target: human FcγRIIa (R131 allele) (human) (UniProt P12318); experiment: MSD [cont'd]
human FcγRIIb (human) [51] = biological target: human FcγRIIb (human) (UniProt P31994); experiment: MSD [cont'd]
human FcRn (human) [52] = biological target: human FcRn (human) (UniProt P55899); experiment: MSD, pH 6 [cont'd]
[53] = biological target: human FcγRIIa (H131 allele) (human) (UniProt P12318); experiment: Table B summary, vs fucosylated wild-type human IgG1
[54] = biological target: human FcγRIIa (R131 allele) (human) (UniProt P12318); experiment: as above

human FcRn (human), sequence (P55899 24-297 limits assumed, chain 1 of 2): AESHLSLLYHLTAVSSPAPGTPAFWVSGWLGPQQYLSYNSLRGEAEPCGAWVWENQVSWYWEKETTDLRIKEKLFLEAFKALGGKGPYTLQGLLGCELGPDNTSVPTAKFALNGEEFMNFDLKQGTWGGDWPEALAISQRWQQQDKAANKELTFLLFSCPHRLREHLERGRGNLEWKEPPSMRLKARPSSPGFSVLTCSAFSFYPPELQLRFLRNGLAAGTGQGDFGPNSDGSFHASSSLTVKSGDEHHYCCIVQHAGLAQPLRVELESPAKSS
human FcRn (human), sequence (chain, as listed by the source limits assumed, chain 2 of 2): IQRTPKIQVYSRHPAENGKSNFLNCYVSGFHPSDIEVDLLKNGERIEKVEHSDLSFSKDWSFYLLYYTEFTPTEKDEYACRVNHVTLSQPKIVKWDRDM
human C1q (human), sequence (P02745 23-245 limits assumed, chain 1 of 3): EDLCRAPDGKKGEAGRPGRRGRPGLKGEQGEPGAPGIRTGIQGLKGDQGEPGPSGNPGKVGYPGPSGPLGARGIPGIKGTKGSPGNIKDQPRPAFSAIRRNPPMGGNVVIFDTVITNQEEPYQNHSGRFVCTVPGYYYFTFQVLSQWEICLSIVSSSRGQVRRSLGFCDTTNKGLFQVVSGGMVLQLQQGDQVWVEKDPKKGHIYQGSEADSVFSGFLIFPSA
human C1q (human), sequence (P02746 28-253 limits assumed, chain 2 of 3, further chain): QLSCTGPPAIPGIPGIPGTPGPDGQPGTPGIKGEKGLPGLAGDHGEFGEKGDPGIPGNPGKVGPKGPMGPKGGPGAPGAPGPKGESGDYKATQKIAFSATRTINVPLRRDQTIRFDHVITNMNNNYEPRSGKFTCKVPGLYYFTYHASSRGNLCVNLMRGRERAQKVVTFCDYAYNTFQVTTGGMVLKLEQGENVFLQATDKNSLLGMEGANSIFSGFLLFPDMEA
human C1q (human), sequence (P02747 29-245 limits assumed, chain 3 of 3, further chain): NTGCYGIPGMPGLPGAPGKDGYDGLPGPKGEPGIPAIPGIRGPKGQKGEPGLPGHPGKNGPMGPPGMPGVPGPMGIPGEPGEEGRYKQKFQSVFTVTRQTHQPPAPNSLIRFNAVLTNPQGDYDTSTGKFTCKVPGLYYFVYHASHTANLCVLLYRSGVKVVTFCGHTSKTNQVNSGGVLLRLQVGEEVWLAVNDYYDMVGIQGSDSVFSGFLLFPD
human FcγRIIa (R131 allele) (human), sequence (P12318 34-218 H167R limits assumed): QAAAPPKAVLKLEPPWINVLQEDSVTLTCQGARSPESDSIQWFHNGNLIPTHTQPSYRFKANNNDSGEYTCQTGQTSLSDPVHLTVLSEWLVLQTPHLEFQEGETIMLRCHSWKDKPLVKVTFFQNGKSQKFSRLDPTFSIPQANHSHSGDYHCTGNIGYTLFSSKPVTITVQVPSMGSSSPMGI
human FcγRIIa (H131 allele) (human), sequence (P12318 34-218 limits assumed): as the sequence (P12318 34-218 H167R limits assumed) above, with R134H counted along it
human FcγRIIIa (F158 allele) (human), sequence (P08637 17-208 limits assumed): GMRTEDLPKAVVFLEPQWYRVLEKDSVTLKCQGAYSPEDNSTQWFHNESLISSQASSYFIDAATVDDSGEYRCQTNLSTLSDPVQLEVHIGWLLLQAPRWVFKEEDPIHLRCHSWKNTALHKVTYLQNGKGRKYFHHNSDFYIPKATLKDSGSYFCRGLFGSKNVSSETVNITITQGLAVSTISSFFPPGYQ
human FcγRIIb (human), sequence (P31994 43-217 limits assumed): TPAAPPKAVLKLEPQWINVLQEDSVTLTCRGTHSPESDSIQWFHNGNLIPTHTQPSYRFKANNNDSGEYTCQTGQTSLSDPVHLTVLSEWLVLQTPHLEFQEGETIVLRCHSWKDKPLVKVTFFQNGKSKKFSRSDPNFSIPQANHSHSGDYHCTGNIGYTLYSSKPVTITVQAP
human FcγRIIIa (V158 allele) (human), sequence (P08637 17-208 F176V limits assumed): as the sequence (P08637 17-208 limits assumed) above, with F160V counted along it
human FcγRIIIb (human), sequence (O75015 17-200 limits assumed): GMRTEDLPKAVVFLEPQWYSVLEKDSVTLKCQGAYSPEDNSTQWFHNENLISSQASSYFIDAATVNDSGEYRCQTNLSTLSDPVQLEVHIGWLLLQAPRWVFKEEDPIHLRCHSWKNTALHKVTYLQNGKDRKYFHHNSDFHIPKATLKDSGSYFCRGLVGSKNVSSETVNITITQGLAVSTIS

For 1G01 (antibody), the Kd (N1 [1]) was 0.868 nM, the kon (N1 [1]) was 55100 M⁻¹ s⁻¹ and the Kd (N2 [2]) was < 0.001 nM. The kon (N2 [2]) was 40200 M⁻¹ s⁻¹, the Kd (N9 [3]) was < 0.001 nM and the kon (N9 [3]) was 106000 M⁻¹ s⁻¹. For the same substance, the koff (N1 [4]) was 4.79e-05 s⁻¹, the koff (N2 [5]) was < 1e-07 s⁻¹ and the koff (N9 [6]) was < 1e-07 s⁻¹. The lowest concentration at which binding was observed (EC50 scale class) [7] was 10 µg/mL, the lowest concentration at which binding was observed (EC50 scale class) [8] was 2 µg/mL and the lowest concentration at which binding was observed (EC50 scale class) [9] was 10 µg/mL. The lowest concentration at which binding was observed (EC50 scale class) [10] was 0.4 µg/mL, the lowest concentration at which binding was observed (EC50 scale class) [11] was 2 µg/mL and the lowest concentration at which binding was observed (EC50 scale class) [12] was 0.4 µg/mL. The lowest concentration at which binding was observed (EC50 scale class) [13] was 0.4 µg/mL, the lowest concentration at which binding was observed (EC50 scale class) [14] was 0.4 µg/mL and the lowest concentration at which binding was observed (EC50 scale class) [15] was 0.4 µg/mL. For the same substance, the lowest concentration at which binding was observed (EC50 scale class) [16] was 0.4 µg/mL, the lowest concentration at which binding was observed (EC50 scale class) [17] was 0.4 µg/mL and the lowest concentration at which binding was observed (EC50 scale class) [18] was 2 µg/mL. It also gave a lowest concentration at which binding was observed (EC50 scale class) [19] of 0.4 µg/mL, a lowest concentration at which binding was observed (EC50 scale class) [20] of 0.4 µg/mL and a lowest concentration at which binding was observed (EC50 scale class) [21] of 0.4 µg/mL. The lowest concentration at which binding was observed (EC50 scale class) [22] was 0.4 µg/mL.
FNI9 (antibody) was tested, and the % Alexa 647-A+ cells [23] was 84% and 83.5%, the % Alexa 647-A+ cells [24] was 82.1% and 78% and the % Alexa 647-A+ cells [25] was 66.1% and 71.3%. The % Alexa 647-A+ cells [26] was 57% and 68.8%, the % of cells in the Alexa 647-A positive gate [27] was 78% and the Kd (N1 [1]) was 0.0164 nM. For the same substance, the Kd (N2 [2]) was < 0.001 nM, the Kd (N9 NA (FIGS. 96A-96C)) was < 0.001 nM and the Kd (N9 [3]) was < 0.001 nM. It also gave a lowest concentration at which binding was observed (EC50 scale class) [28] of 0.4 µg/mL, a lowest concentration at which binding was observed (EC50 scale class) [7] of 0.4 µg/mL and a lowest concentration at which binding was observed (EC50 scale class) [8] of 0.4 µg/mL. For the same substance, the lowest concentration at which binding was observed (EC50 scale class) [10] was 0.4 µg/mL, the lowest concentration at which binding was observed (EC50 scale class) [11] was 0.4 µg/mL and the lowest concentration at which binding was observed (EC50 scale class) [12] was 0.4 µg/mL. The lowest concentration at which binding was observed (EC50 scale class) [13] was 0.4 µg/mL, the lowest concentration at which binding was observed (EC50 scale class) [16] was 0.4 µg/mL and the lowest concentration at which binding was observed (EC50 scale class) [17] was 0.4 µg/mL. It also gave a lowest concentration at which binding was observed (EC50 scale class) [19] of 0.4 µg/mL, a lowest concentration at which binding was observed (EC50 scale class) [20] of 50 µg/mL and a lowest concentration at which binding was observed (EC50 scale class) [21] of 50 µg/mL. It also gave a lowest concentration at which binding was observed (EC50 scale class) [22] of 0.4 µg/mL, a Kd (NA-9) of 0.088 nM and a % of cells in the Alexa 647-A positive gate [29] of 82.1%. For the same substance, the % of cells in the Alexa 647-A positive gate [30] was 83.5% and the % of cells in the Alexa 647-A positive gate [31] was 84%.
Work on “IgG1 antibody with Fc variant G236A_R292P_Y300L” yielded a FcγR reporter signaling, fold-change vs wt [cont'd] [32] of 6.15 fold, a FcγR reporter signaling, fold-change vs wt [cont'd] [33] of 2.83 fold and a FcγR reporter signaling, fold-change vs wt [cont'd] [34] of 1.87 fold. For the same substance, the FcγR reporter signaling, fold-change vs wt [cont'd] (human FcγRIIb (human) [35]) was 1.01 fold, the fold-change vs FY1 rIgG1m3 (human C1q (human) [36]) was 1.01 fold and the fold-change vs FY1 rIgG1m3 (human FcRn (human) [37]) was 0.8 fold. For the same substance, the fold-change vs FY1 rIgG1m3 [38] was 3.7 fold, the fold-change vs FY1 rIgG1m3 [39] was 2.7 fold and the fold-change vs FY1 rIgG1m3 (human FcγRIIIb (human) [40]) was 1.03 fold. For the same substance, the fold-change to WT Fc [41] was 14.2 fold, the fold-change vs FY1 rIgG1m3 [41] was 14.2 fold and the fold-change to WT Fc [42] was 2.71 fold. The fold-change vs FY1 rIgG1m3 [42] was 2.7 fold, the fold-change to WT Fc (human FcγRIIb (human) [43]) was 0.94 fold and the fold-change vs FY1 rIgG1m3 (human FcγRIIb (human) [43]) was 0.9 fold. For the same substance, the fold-change to WT Fc (human C1q (human) [44]) was 1.01 fold, the fold-change vs wt (human C1q (human) [44]) was 1.01 fold and the fold-change vs wt (human FcRn (human) [45]) was 0.83 fold. For the same substance, the fold-change to WT Fc [46] was 3.71 fold, the fold-change vs wt [46] was 3.71 fold and the fold-change to WT Fc [47] was 2.69 fold. For the same substance, the fold-change vs wt [47] was 2.69 fold, the fold-change vs wt (human FcγRIIIb (human) [48]) was 1.03 fold and the fold-change vs wt [49] was 14.2 fold. It also gave a fold-change vs wt [50] of 2.71 fold, a fold-change vs wt (human FcγRIIb (human) [51]) of 0.94 fold and a fold-change to WT Fc (human FcRn (human) [52]) of 0.828 fold. It also gave a fold-change in binding vs fucosylated wild-type human IgG1 [53] of 14 fold and a fold-change in binding vs fucosylated wild-type human IgG1 [54] of 2.7 fold.
